Laboratory results reported in patent publication US20060240474A1, “Peptides able to switch between two structural states and their use” (UNIVERSITY OF SUSSEX, priority 2002, published 2006).
Where a SMILES comes first, the peptide text is derived from it. Bridges are numbered along the chain shown (N, C = ends). Roman numbers before positions name the chains, in order. Where no end group is shown, it is not given here. The star is where a group is joined. Cam = NC(=O)C*

How the values were obtained:
[1] = Thermal unfolding followed by CD spectroscopy; type: physicochemical; details: for thermal stability in words: comparator named in the value; for TM of the oxidised state: oxidised form; for TM of the oxidised state / TM of the reduced, dimeric form: ±2 for all three values; for midpoint of thermal unfolding transition, TM: FIG. 3B, concentration not given; for thermal destabilisation compared with CSP-3o: oxidised forms
Experimental: (§1) Circular dichroism spectroscopy. CD measurements were made using a JASCO J-715 spectropolarimeter fitted with a Peltier temperature controller. Peptide solutions were prepared in 25 mM potassium phosphate buffer at pH 7 and were examined in 1 mm or 1 cm quartz cuvettes (with stirring). Spectra were recorded at 5° C. using 1 nm intervals, a 1 nm bandwidth and 4 sec response time. Thermal unfolding curves were recorded through 1° C. min^−1 ramps using a 2 nm bandwidth, averaging the signal for 16 s every 1° C. intervals. After baseline correction, ellipticities in mdeg were converted to molar ellipticities (deg cm^2 dmol-res-^−1) by normalising for the concentration of peptide bonds.

[2] = Circular dichroism spectroscopy (helicity); type: physicochemical; details: for helicity compared with other designs (CD signal at 222 nm): pH 7, comparator named in the value; for helix content judged by CD spectroscopy: pH 7, 5° C., 100 μM peptide (b86 prints 100 mM)
Experimental: as §1

[3] = target: the molecule itself; test: sedimentation equilibrium AUC, monomer-dimer fit, pH 7, 5 C (homodimerisation)
Experimental: Sedimentation equilibrium experiments were conducted at 5° C. in a Beckman-Optima XL-I analytical ultracentrifuge fitted with an An-60 Ti rotor. A […] peptide solution at […] in 25 mM K phosphate buffer pH 7 containing 0.1 M KCl was equilibrated for 48 h at speeds of 40 000, 47 500/50 000 and 55 000/60 000 rpm. Data were fitted simultaneously assuming either a single ideal species or a monomer-dimer equilibrium and fixed monomer molecular weight, using routines in the Beckman-Optima XL-A/XLI-I data analysis software (v4.0). The molecular weights (Table 2) and partial specific volumes (range 0.7417 to 0.7461) of the peptides were calculated from their amino-acid sequences, and the viscosity of the buffer at 5° C. was taken to be […].

CGGEIRALKYEIARLKQAAQAKKRALEQKIAALEGGC [CSP-7o] (disulfide 1-37)
thermal stability in words [1]: affected less

CGGEIRALKYEIARLKQAKQAEIRALKQEIAALKGGC [CSP-4r]
thermal stability higher than CSP-3r by ([1]; reduced forms): ~8 °C

CC[C@H](C)[C@H](NC(=O)[C@H](CCCCN)NC(=O)[C@H](CCC(N)=O)NC(=O)[C@H](CCC(=O)O)NC(=O)[C@H](CC(C)C)NC(=O)[C@H](C)NC(=O)[C@H](CCCNC(=N)N)NC(=O)[C@@H](NC(=O)[C@H](CCCCN)NC(=O)[C@H](C)NC(=O)[C@H](CCC(N)=O)NC(=O)[C@H](C)NC(=O)[C@H](C)NC(=O)[C@H](CCC(N)=O)NC(=O)[C@H](CCCCN)NC(=O)[C@H](CC(C)C)NC(=O)[C@H](CCCNC(=N)N)NC(=O)[C@H](C)NC(=O)[C@@H](NC(=O)[C@H](CCC(=O)O)NC(=O)[C@H](Cc1ccc(O)cc1)NC(=O)[C@H](CCCCN)NC(=O)[C@H](CC(C)C)NC(=O)[C@H](C)NC(=O)[C@H](CCCNC(=N)N)NC(=O)[C@@H](NC(=O)[C@H](CCC(=O)O)NC(=O)CNC(=O)CNC(=O)[C@@H](N)CS)[C@@H](C)CC)[C@@H](C)CC)[C@@H](C)CC)C(=O)N[C@@H](C)C(=O)N[C@@H](C)C(=O)N[C@@H](CC(C)C)C(=O)N[C@@H](CCC(=O)O)C(=O)NCC(=O)NCC(=O)N[C@@H](CS)C(=O)O [CSP-6] (H-CGGEIRALKYEIARLKQAAQAKIRALEQKIAALEGGC-OH; N-terminus and C-terminus assumed)
TM of the oxidised state [1]: 47 °C | TM of the reduced, dimeric form [1]: 75 °C

CGGEIRALKYEIARLKQAAQAKKRALEQKIAALEGGC [CSP-7r]
helicity compared with other designs (CD signal at 222 nm) [2]: compromised both the helicity and the thermal stability | thermal stability in words [1]: compromised both the helicity and the thermal stability

CGGEIRALKYEIARLKQAKQAKIRALEQKIAALEGGC [CSP-3r]
helicity compared with other designs (CD signal at 222 nm) [2]: approximate three-fold improvement in helicity over CSP-2r | midpoint of thermal unfolding transition, TM [1]: 40±2 °C

CGGEIRALKYEIARLKQ----KKRALEQKIAALEGGC [CSP-1r] (not fully specified (some residues); cysteine pairing not given here)
helix content judged by CD spectroscopy [2]: 90% | transition midpoint, TM ([1]; 10 mM sample (so in the source)): 50 °C | transition midpoint, TM ([1]; 100 mM peptide (so in the source)): 62 °C

CC[C@H](C)[C@H](NC(=O)[C@H](CCCCN)NC(=O)[C@H](CCC(N)=O)NC(=O)[C@H](CCC(=O)O)NC(=O)[C@H](CC(C)C)NC(=O)[C@H](C)NC(=O)[C@H](CCCNC(=N)N)NC(=O)[C@H](CCCCN)NC(=O)[C@H](CCCCN)NC(=O)[C@H](C)NC(=O)[C@H](CCC(N)=O)NC(=O)[C@H](C)NC(=O)[C@H](C)NC(=O)[C@H](CCC(N)=O)NC(=O)[C@H](CCCCN)NC(=O)[C@H](CC(C)C)NC(=O)[C@H](CCCNC(=N)N)NC(=O)[C@H](C)NC(=O)[C@@H](NC(=O)[C@H](CCC(=O)O)NC(=O)[C@H](Cc1ccc(O)cc1)NC(=O)[C@H](CCCCN)NC(=O)[C@H](CC(C)C)NC(=O)[C@H](C)NC(=O)[C@H](CCCNC(=N)N)NC(=O)[C@@H](NC(=O)[C@H](CCC(=O)O)NC(=O)CNC(=O)CNC(=O)[C@@H](N)CS)[C@@H](C)CC)[C@@H](C)CC)C(=O)N[C@@H](C)C(=O)N[C@@H](C)C(=O)N[C@@H](CC(C)C)C(=O)N[C@@H](CCC(=O)O)C(=O)NCC(=O)NCC(=O)N[C@@H](CS)C(=O)O [CSP-7] (H-CGGEIRALKYEIARLKQAAQAKKRALEQKIAALEGGC-OH; N-terminus and C-terminus assumed)
TM of the oxidised state [1]: 53±2 °C | TM of the reduced, dimeric form [1]: 34±2 °C

CGGEIRALKYEIARLKQAAQAKIRALEQKIAALEGGC [CSP-6r]
helicity compared with other designs (CD signal at 222 nm) [2]: significantly increased over the other hendecad-containing designs CSP-2r and CSP-3r | TM ([1]; 10 μM peptide): 61±2 °C | thermal stability in words [1]: significantly increased over the other hendecad-containing designs CSP-2r and CSP-3r

CGGKIRALEYKIARLEQAKQAKIRALEQKIAALEGGC [CSP-5o] (disulfide 1-37)
helicity compared with other designs (CD signal at 222 nm) [2]: marginally less helical than the parent, CSP-3o | thermal destabilisation compared with CSP-3o [1]: ~20 °C

CGGEIRALKYEIARLKQGGGGKKRALEQKIAALEGGC [CSP-2o] (disulfide 1-37)
helix content judged by CD spectroscopy [2]: ~40% | helicity compared with other designs (CD signal at 222 nm) [2]: approximately double the helical signal ([θ]222) of the parent peptide | midpoint of thermal unfolding transition, TM [1]: 40±2 °C

CGGKIRALEYKIARLEQAKQAKIRALEQKIAALEGGC [CSP-5r]
thermal stability lower than the parent (CSP-3r) by ([1]; reduced forms): 12 °C

CGGEIRALKYEIARLKQAKQAEIRALKQEIAALKGGC [CSP-4o] (disulfide 1-37)
helicity compared with other designs (CD signal at 222 nm) [2]: marginally less helical than the parent, CSP-3o | thermal destabilisation compared with CSP-3o [1]: ~20 °C

CGGEIRALKYEIARLKQGGGGKKRALEQKIAALEGGC [CSP-2r]
helix content judged by CD spectroscopy [2]: ~20% | midpoint of thermal unfolding transition, TM [1]: 22±2 °C

CC[C@H](C)[C@H](NC(=O)[C@H](CCCCN)NC(=O)[C@H](CCC(N)=O)NC(=O)[C@H](CCC(=O)O)NC(=O)[C@H](CC(C)C)NC(=O)[C@H](C)NC(=O)[C@H](CCCNC(=N)N)NC(=O)[C@@H](NC(=O)[C@H](CCCCN)NC(=O)[C@H](C)NC(=O)[C@H](CCC(N)=O)NC(=O)[C@H](CCCCN)NC(=O)[C@H](C)NC(=O)[C@H](CCC(N)=O)NC(=O)[C@H](CCCCN)NC(=O)[C@H](CC(C)C)NC(=O)[C@H](CCCNC(=N)N)NC(=O)[C@H](C)NC(=O)[C@@H](NC(=O)[C@H](CCC(=O)O)NC(=O)[C@H](Cc1ccc(O)cc1)NC(=O)[C@H](CCCCN)NC(=O)[C@H](CC(C)C)NC(=O)[C@H](C)NC(=O)[C@H](CCCNC(=N)N)NC(=O)[C@@H](NC(=O)[C@H](CCC(=O)O)NC(=O)CNC(=O)CNC(=O)[C@@H](N)CS)[C@@H](C)CC)[C@@H](C)CC)[C@@H](C)CC)C(=O)N[C@@H](C)C(=O)N[C@@H](C)C(=O)N[C@@H](CC(C)C)C(=O)N[C@@H](CCC(=O)O)C(=O)NCC(=O)NCC(=O)N[C@@H](CS)C(=O)O [CSP-3] (H-CGGEIRALKYEIARLKQAKQAKIRALEQKIAALEGGC-OH; N-terminus and C-terminus assumed)
TM of the oxidised state [1]: 50 °C | TM of the reduced, dimeric form [1]: 40 °C

CGGEIRALKYEIARLKQ----KKRALEQKIAALEGGC [CSP-1o] (disulfide I:1-II:16; not fully specified)
helix content judged by CD spectroscopy [2]: 20% | thermal stability in words [1]: changed little upon heating

B1: CSP-6r (reduced and alkylated) (peptide)
peptide: C(Cam)GGEIRALKYEIARLKQAAQAKIRALEQKIAALEGGC(Cam)
notes: CSP-3 with the Lys at the h position replaced by Ala; also called design iteration 6, reduced & alkylated; CSP-7a (Maya's nomenclature)
Kd [3]: 34 µM

B2: CSP-7r (reduced and alkylated) (peptide)
peptide: C(Cam)GGEIRALKYEIARLKQAAQAKKRALEQKIAALEGGC(Cam)
notes: CSP-6 with the Ile at the a site after the hendecad unit replaced by Lys; also called design iteration 7, reduced & alkylated; CSP-8a (Maya's nomenclature)
Kd [3]: 506 µM

B3: CSP-4r (reduced and alkylated) (peptide)
peptide: C(Cam)GGEIRALKYEIARLKQAKQAEIRALKQEIAALKGGC(Cam)
notes: Anagram mutant of CSP-3 with all g:e pairs Glu:Lys; also called design iteration 4, reduced & alkylated; CSP-5a (Maya's nomenclature)
Kd [3]: 77 µM

B4: CSP-5r (reduced and alkylated) (peptide)
peptide: C(Cam)GGKIRALEYKIARLEQAKQAKIRALEQKIAALEGGC(Cam)
notes: Anagram mutant of CSP-3 with all g:e pairs Lys:Glu; also called design iteration 5, reduced & alkylated; CSP-6a (Maya's nomenclature)
Kd [3]: 72 µM

B5: CSP-3r (reduced and alkylated) (peptide)
peptide: C(Cam)GGEIRALKYEIARLKQAKQAKIRALEQKIAALEGGC(Cam)
notes: The entry is the monomer chain; the KD is for its monomer-dimer equilibrium; also called CSP-3a; design iteration 3, reduced & alkylated
Kd [3]: 191 µM

B6: CSP-1r (Coiled-coil-Switch Peptide-1, reduced and alkylated) (peptide)
peptide: C(Cam)GGEIRALKYEIARLKQKKRALEQKIAALEGGC(Cam)
notes: Synthetic designed peptide; The entry is the monomer chain; the KD is for its monomer-dimer equilibrium (parallel coiled-coil homodimer); also called design iteration 1, reduced & alkylated; CSP-2a (Maya's nomenclature)
Kd [3]: 33 µM
